B2: VEGF-B (ligand, UniProt P49765 22-207, looked up)
chain: PVSQPDAPGHQRKVVSWIDVYTRATCQPREVVVPLTVELMGTVAKQLVPSCVTVQRCGGCCPDDGLECVPTGQHQVRMQILMIRYPSSQLGEMSLEEHSQCECRPKKKDSAVKPDRAATPHHRPQPRSVPGWDSAPGAPSPADITHPTPAPGPSAHAAPSTTSALTPGPAAAAADAAASSVAKGGA
notes: vascular endothelial growth factor B
B5: PDGF BB (ligand, UniProt P01127 82-190, looked up)
chain: SLGSLTIAEPAMIAECKTRTEVFEISRRLIDRTNANFLVWPPCVEVQRCSGCCNNRNVQCRPTQVQLRPVQVRKIEIVRKKPIFKKATVTLEDHLACKCETVAAARPVT
notes: platelet-derived growth factor B chain

Tests used:
Conditions in all cases: both partners purified
IGFBP-7 = target: T1, IGFBP-7 (UniProt Q16270 27-282); test: SPR; IGF binding protein or Fc fusion amine-coupled to a CM4 chip, growth factor as analyte; Biacore T100/T200; HBS-P, with 0.2 mg/ml BSA or 0.65 M NaCl to reduce non-specific binding; 25 °C; 1:1 binding fit
T1 sequence (looked up): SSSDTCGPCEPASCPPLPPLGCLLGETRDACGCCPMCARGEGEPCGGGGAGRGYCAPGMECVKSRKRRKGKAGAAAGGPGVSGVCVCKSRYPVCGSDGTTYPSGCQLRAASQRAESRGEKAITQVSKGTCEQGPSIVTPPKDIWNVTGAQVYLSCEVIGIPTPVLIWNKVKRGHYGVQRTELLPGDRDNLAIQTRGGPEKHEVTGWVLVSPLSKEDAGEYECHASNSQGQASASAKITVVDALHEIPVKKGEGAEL

IGFBP-3 = IGFBP-3 (UniProt P17936 28-291); test: as above
56662 [1] = target: T2, 56662 (UniProt P17936-1 28-291); test: SPR; growth factor amine-coupled to a CM4 chip, Fc fusion as analyte (values marked * in Table 1); Biacore T100/T200; HBS-P, with 0.2 mg/ml BSA or 0.65 M NaCl to reduce non-specific binding; 25 °C; 1:1 binding fit
T2 construct: Fc dimer; also called BP3-Fc; IGFBP-3-Fc; source: 293T cells, transfected, conditioned medium, purified (protein A Sepharose); not shown: Fc (IgG1), C-terminal, kept

Chimera A = target: T3, Chimera A; test: as above
T3 construct: VEGF receptor 1 domain 2, first part of VEGF-trap; VEGF receptor 2 domain 3, second part of VEGF-trap; VEGF-trap inserted between the IGFBP-3 and the Fc domain; Fc dimer; also called chA; BP3-VEGF-trap-Fc; source: 293T cells, transfected, conditioned medium, purified (protein A Sepharose); not shown: Fc (IgG1), C-terminal, kept
T3 sequence (Q02297 20-241, stated change not applied): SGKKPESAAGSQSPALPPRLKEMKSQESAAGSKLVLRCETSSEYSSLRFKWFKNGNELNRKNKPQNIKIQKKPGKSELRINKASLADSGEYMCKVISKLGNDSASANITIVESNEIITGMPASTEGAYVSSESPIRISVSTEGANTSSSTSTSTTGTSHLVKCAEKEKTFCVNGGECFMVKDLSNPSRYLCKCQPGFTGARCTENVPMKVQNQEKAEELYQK

IGFBP-2 = target: T4, IGFBP-2 (UniProt P18065 36-325); test: SPR; IGF binding protein or Fc fusion amine-coupled to a CM4 chip, growth factor as analyte; Biacore T100/T200; HBS-P, with 0.2 mg/ml BSA or 0.65 M NaCl to reduce non-specific binding; 25 °C; 1:1 binding fit
T4 sequence (looked up): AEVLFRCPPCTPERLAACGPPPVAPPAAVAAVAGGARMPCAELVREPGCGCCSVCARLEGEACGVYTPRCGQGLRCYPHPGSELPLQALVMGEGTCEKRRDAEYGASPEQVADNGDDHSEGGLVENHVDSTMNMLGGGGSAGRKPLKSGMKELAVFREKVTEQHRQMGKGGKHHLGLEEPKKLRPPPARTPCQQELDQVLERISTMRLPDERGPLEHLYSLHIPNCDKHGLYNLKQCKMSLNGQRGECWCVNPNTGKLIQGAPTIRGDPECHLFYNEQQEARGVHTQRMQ

56662 [2] = target: T2, 56662; test: as above
hepatocyte growth factor [3] = target: T5, hepatocyte growth factor (UniProt P14210 32-728); test: SPR; IGF binding protein or Fc fusion amine-coupled to a CM4 chip, growth factor as analyte; Biacore T100 or T200, HBS-P, BSA (0.2 mg/ml) or NaCl (0.65 M final) to reduce non-specific binding, 25 °C; 1:1 binding analysis
T5 construct: hepatocyte growth factor, commercial; Mature HGF is a two-chain (alpha/beta) product of one precursor; the preparation is said to hold both processed and unprocessed forms; also called HGF; source: expressed in insect cells
T5 sequence (P14210 32-728): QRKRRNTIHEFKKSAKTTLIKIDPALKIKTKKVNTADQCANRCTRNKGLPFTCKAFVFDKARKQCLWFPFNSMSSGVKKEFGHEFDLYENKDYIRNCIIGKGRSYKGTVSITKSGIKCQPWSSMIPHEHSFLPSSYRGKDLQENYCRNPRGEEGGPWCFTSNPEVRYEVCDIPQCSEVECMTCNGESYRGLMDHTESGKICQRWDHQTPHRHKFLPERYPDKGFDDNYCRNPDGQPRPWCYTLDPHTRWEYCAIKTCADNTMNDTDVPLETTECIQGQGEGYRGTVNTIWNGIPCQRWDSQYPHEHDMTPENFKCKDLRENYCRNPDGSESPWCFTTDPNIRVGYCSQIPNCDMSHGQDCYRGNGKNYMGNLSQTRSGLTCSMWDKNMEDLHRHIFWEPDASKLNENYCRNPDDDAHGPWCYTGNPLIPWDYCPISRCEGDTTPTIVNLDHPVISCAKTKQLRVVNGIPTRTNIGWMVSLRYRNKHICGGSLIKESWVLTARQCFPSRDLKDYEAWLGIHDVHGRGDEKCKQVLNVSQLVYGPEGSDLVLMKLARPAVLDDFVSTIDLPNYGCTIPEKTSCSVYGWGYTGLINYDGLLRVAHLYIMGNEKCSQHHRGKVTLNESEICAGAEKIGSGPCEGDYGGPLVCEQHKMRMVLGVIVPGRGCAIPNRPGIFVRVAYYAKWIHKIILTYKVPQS

56662 [4] = target: T6, 56662 (UniProt P17936-1 28-291); test: SPR; growth factor immobilised on a CM4 chip instead of the binding protein (asterisk in Table 1), binding protein or Fc fusion as analyte; HBS-P, 25 °C; regeneration with 4 M MgCl2 then 5 M guanidinium chloride; 1:1 binding analysis
T6 construct: the secretory signal peptide was derived from IGFBP-2; Fc portion of IgG1 added to the C terminus of IGFBP-3; called an Fc dimer; Probably the mature IGFBP-3 after removal of the IGFBP-2 signal peptide; also called IGFBP-3-Fc; BP3-Fc (unmodified IGFBP-3 Fc construct); source: 293 T cells, transfected; conditioned medium purified by proteinA Sepharose; not shown: Fc (IgG1), C-terminal, kept

56662 [5] = target: T6, 56662; test: SPR; IGF binding protein or Fc fusion amine-coupled to a CM4 chip, growth factor as analyte; Biacore T100 or T200, HBS-P, BSA (0.2 mg/ml) or NaCl (0.65 M final) to reduce non-specific binding, 25 °C; 1:1 binding analysis
[6] = target: T7, insulin-like growth factor-1 (UniProt P05019 49-118); test: SPR; IGF binding protein or Fc fusion amine-coupled to a CM4 chip, growth factor as analyte; Biacore T100/T200; HBS-P, with 0.2 mg/ml BSA or 0.65 M NaCl to reduce non-specific binding; 25 °C; 1:1 binding fit
T7 construct: insulin-like growth factor 1; also called IGF1; IGF-1
T7 sequence (P05019 49-118): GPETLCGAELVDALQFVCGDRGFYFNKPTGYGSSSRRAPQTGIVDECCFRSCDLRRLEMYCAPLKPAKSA

[7] = target: T8, insulin-like growth factor-2 (UniProt P01344 25-91); test: as above
T8 construct: insulin-like growth factor 2; also called IGF2; IGF-2
T8 sequence (P01344 25-91): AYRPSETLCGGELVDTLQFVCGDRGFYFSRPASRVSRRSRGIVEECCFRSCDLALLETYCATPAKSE

bFGF = target: T9, bFGF (UniProt P09038 143-288); test: SPR; growth factor amine-coupled to a CM4 chip, Fc fusion as analyte (values marked * in Table 1); Biacore T100/T200; HBS-P, with 0.2 mg/ml BSA or 0.65 M NaCl to reduce non-specific binding; 25 °C; 1:1 binding fit
T9 construct: basic fibroblast growth factor; also called basic FGF
T9 sequence (P09038 143-288): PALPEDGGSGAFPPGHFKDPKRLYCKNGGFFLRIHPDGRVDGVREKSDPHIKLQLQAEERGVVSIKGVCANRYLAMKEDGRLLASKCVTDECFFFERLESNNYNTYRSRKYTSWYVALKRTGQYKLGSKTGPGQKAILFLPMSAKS

VEGF-B = target: B2; test: as above
neuregulin-1 = neuregulin-1 (UniProt Q02297 20-241); test: as above
Sequence of neuregulin-1 (Q02297 20-241): as the sequence (Q02297 20-241, stated change not applied) above

PDGF BB = target: B5; test: as above
hepatocyte growth factor [8] = target: T10, hepatocyte growth factor (UniProt P14210 32-728); test: as above
T10 construct: hepatocyte growth factor; also called HGF; source: bought
T10 sequence (P14210 32-728): as the sequence (P14210 32-728) above

B1: neuregulin-1 (ligand)
chain: SERKEGRGKGKGKKKERGSGKKPESAAGSQSPALPPRLKEMKSQESAAGSKLVLRCETSSEYSSLRFKWFKNGNELNRKNKPQNIKIQKKPGKSELRINKASLADSGEYMCKVISKLGNDSASANITIVESNEIITGMPASTEGAYVSSESPIRISVSTEGANTSSSTSTSTTGTSHLVKCAEKEKTFCVNGGECFMVKDLSNPSRYLCKCPNEFTGDRCQNYVMASFYKHLGIEFMEAEELYQK
modifications: R&D 377-HB, neuregulin extracellular domain, taken as NRG1-beta1 Ser2-Lys246; the paper prints only the catalogue number and 'extracellular domain'.
IGFBP-7
  koff: 0.00129 s⁻¹
  kon: 800 M⁻¹ s⁻¹
IGFBP-3
  koff: 0.000883 s⁻¹
  kon: 425000 M⁻¹ s⁻¹
56662 [1]
  koff: 0.00443 s⁻¹
  kon: 481000 M⁻¹ s⁻¹
Chimera A
  koff: 0.000291 s⁻¹
  kon: 394000 M⁻¹ s⁻¹

## B2
IGFBP-2
  koff: 0.000441 s⁻¹
  kon: 157000 M⁻¹ s⁻¹
IGFBP-7
  koff: 0.00277 s⁻¹
  kon: 875000 M⁻¹ s⁻¹
56662 [2]
  koff: 0.000284 s⁻¹
  kon: 45000 M⁻¹ s⁻¹
IGFBP-3
  koff: 0.000751 s⁻¹
  kon: 96600 M⁻¹ s⁻¹

B3: IGFBP-7 (natural protein, UniProt Q16270 27-282, looked up)
chain: SSSDTCGPCEPASCPPLPPLGCLLGETRDACGCCPMCARGEGEPCGGGGAGRGYCAPGMECVKSRKRRKGKAGAAAGGPGVSGVCVCKSRYPVCGSDGTTYPSGCQLRAASQRAESRGEKAITQVSKGTCEQGPSIVTPPKDIWNVTGAQVYLSCEVIGIPTPVLIWNKVKRGHYGVQRTELLPGDRDNLAIQTRGGPEKHEVTGWVLVSPLSKEDAGEYECHASNSQGQASASAKITVVDALHEIPVKKGEGAEL
notes: source: bought (commercially available, carrier-free)
Hepatocyte growth factor [3]
  binding result: binds

B4: PDGF BB (ligand, UniProt P01127 82-190, looked up)
chain: SLGSLTIAEPAMIAECKTRTEVFEISRRLIDRTNANFLVWPPCVEVQRCSGCCNNRNVQCRPTQVQLRPVQVRKIEIVRKKPIFKKATVTLEDHLACKCETVAAARPVT
notes: platelet-derived growth factor B chain; Homodimer of B chains by its name
56662 [4]
  Kd: 4.19 nM
56662 [5]
  Kd: 0.52 nM

## B5
56662 [1]
  koff: 0.000562 s⁻¹
  kon: 259000 M⁻¹ s⁻¹

B6: D3 (Fc fusion)
chain: GASSAGLGPVVRCEPCDARALAQCAPPPAVCAELVREPGCGCCLTCALSEGQPCGIYTERCGSGLRCQPSPDEARPLQALLDGRGLCVNASAVSRPAPPAPGNASESEEDRSAGSVESPSVSSTHRVSDPKFHPKGHAKVDYESQSTDTQNFSSESKRETEYGPCRREMEDTLNHLKFLNVLSPRGVHIPNCDKKGFYKKKQCRPSKGRKRGFCWCVDKYGQPLPGYTTKGKEDVHCYSMQSK
modifications: Secreted Fc-fusion dimer; Fc omitted. Deletions 121-126, 166-174 and 180-185 are in 56662 precursor numbering (UniProt = construct + 2; the offset agrees with the H3t33-type deletion printed in …)
[6]
  koff: 8.36e-05 s⁻¹
  kon: 163000 M⁻¹ s⁻¹
[7]
  koff: 0.00185 s⁻¹
  kon: 8.25e+06 M⁻¹ s⁻¹
bFGF
  koff: 0.000529 s⁻¹
  kon: 161000 M⁻¹ s⁻¹
VEGF-B
  koff: 0.000445 s⁻¹
  kon: 25000 M⁻¹ s⁻¹
neuregulin-1
  koff: 0.00053 s⁻¹
  kon: 270000 M⁻¹ s⁻¹
PDGF BB
  koff: 0.00175 s⁻¹
  kon: 550000 M⁻¹ s⁻¹
Hepatocyte growth factor [8]
  koff: 0.000291 s⁻¹
  kon: 110000 M⁻¹ s⁻¹
